Results on three substances are retold here after patent publication US20240132578A1.

Assay in all cases: cell-based or functional assay
Assay [1] has as its target HIV-1 Env of isolate 92RW020 (clade A pseudovirus) (HIV-1).
Assay [2] has as its target HIV-1 Env of isolate MGRM-A-005 (clade A pseudovirus) (HIV-1).
The target of assay [3] is HIV-1 Env of isolate MGRM-Chronic-B-004, clade B (HIV-1).
Assay [4] addresses HIV-1 Env of isolate MGRM-D-019 (clade D pseudovirus) (HIV-1).
In assay [5] the target is HIV-1 Env of isolate SF162 (HIV-1) (UniProt P19550).

As to 1495_C14 (PGC14) (antibody), the IC50 (µg/ml), pseudovirus neutralization is 46 µg/mL in assay [1], > 50 µg/mL in assay [2], > 50 µg/mL in assay [3] and < 0.0025 µg/mL in assay [5]. For the same substance, the IC50, pseudovirus neutralization in assay [4] is > 50 µg/mL.
As for 2G12 (antibody), the IC50 (µg/ml), pseudovirus neutralization in assay [1] was 0.48 µg/mL; in assay [2] it was > 50 µg/mL; in assay [3], 8.65 µg/mL; in assay [5], 1.67 µg/mL. Also, the IC50, pseudovirus neutralization in assay [4] is > 50 µg/mL.
2F5 (antibody): the IC50 (µg/ml), pseudovirus neutralization in assay [1] was 3.36 µg/mL; in assay [2], 5.7 µg/mL; in assay [3] it was 2.41 µg/mL; in assay [5], 2.52 µg/mL. In assay [4], this substance registered an IC50, pseudovirus neutralization of 0.14 µg/mL.
